Here are results for four molecules from article PMC10397247.

Holding throughout (assay): two-hybrid library CCNG1;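 note: natural log of median RNA to DNA barcode read ratio; higher means stronger binding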
The target in one assay is T1, 4H2729-bN.
T1 chain: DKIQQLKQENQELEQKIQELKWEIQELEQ

In the next assay the target is T2, 4H3112-bN.
T2 chain: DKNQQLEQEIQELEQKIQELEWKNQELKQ

Another assay addresses T3, 4H3185-bN.
T3 chain: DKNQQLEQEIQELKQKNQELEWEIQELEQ

Another assay has as its target T4, 4H331-bN.
T4 chain: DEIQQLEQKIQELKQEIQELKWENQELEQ

A further assay has as its target T5, 4H3354-bN.
T5 chain: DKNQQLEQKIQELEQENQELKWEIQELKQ

The next assay concerns the target T6, 4H338-bN.
T6 chain: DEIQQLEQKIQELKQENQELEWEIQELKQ

The target in another assay is T7, 4H3427-bN.
T7 chain: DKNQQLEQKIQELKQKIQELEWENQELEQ

In another assay the target is T8, 4H3782-bN.
T8 chain: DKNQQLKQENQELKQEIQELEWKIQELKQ

The next assay deals with T9, 4H3817-bN.
T9 chain: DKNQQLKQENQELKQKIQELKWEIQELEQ

In the next assay the target is T10, 4H3855-bN.
T10 chain: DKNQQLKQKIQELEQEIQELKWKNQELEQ

Another assay addresses T11, 4H4001-bN.
T11 chain: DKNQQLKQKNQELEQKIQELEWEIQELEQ

Another assay addresses T12, 4H454-bN.
T12 chain: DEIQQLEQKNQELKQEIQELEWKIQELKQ

Another assay addresses T13, 4H568-bN.
T13 chain: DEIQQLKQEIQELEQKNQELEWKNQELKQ

Another assay concerns the target T14, 4H607-bN.
T14 chain: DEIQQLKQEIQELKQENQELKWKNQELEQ

The next assay concerns the target T15, 4H687-bN.
T15 chain: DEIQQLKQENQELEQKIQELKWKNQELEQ

Another assay addresses T16, 4H717-bN.
T16 chain: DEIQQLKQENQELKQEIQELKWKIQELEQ

The target of a further assay is T17, 4H72-bN.
T17 chain: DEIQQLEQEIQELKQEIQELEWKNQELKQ

Another assay deals with T18, 4H754-bN.
T18 chain: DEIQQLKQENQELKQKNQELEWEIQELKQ

The next assay deals with T19, 4H797-bN.
T19 chain: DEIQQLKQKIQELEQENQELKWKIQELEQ

For a further assay, the target named is T20, 4H883-bN.
T20 chain: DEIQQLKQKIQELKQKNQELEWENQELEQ

The target of the next assay is T21, 4H908-bN.
T21 chain: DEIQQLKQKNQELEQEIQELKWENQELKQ

The target of another assay is T22, 4H918-bN.
T22 chain: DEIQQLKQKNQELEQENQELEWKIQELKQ

Another assay addresses T23, 4H953-bN.
T23 chain: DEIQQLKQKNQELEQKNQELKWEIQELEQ

In another assay the target is T24, 4H967-bN.
T24 chain: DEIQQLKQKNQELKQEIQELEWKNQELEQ

In a further assay the target is T25, 4H2729-bH.
T25 chain: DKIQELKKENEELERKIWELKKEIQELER

Another assay has as its target T26, 4H3112-bH.
T26 chain: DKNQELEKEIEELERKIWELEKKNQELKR

A further assay concerns the target T27, 4H3185-bH.
T27 chain: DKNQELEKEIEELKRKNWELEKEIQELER

Another assay has as its target T28, 4H331-bH.
T28 chain: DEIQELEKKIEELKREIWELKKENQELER

The target in the next assay is T29, 4H3354-bH.
T29 chain: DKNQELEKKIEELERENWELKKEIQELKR

The target in the next assay is T30, 4H338-bH.
T30 chain: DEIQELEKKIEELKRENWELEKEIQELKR

The target of the next assay is T31, 4H3427-bH.
T31 chain: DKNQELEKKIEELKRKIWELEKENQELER

The next assay deals with T32, 4H3782-bH.
T32 chain: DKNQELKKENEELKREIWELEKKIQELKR

Another assay concerns the target T33, 4H3855-bH.
T33 chain: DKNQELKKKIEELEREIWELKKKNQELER

The next assay deals with T34, 4H4001-bH.
T34 chain: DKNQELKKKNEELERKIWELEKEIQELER

The next assay has as its target T35, 4H454-bH.
T35 chain: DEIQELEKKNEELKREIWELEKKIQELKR

A further assay concerns the target T36, 4H568-bH.
T36 chain: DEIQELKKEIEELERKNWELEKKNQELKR

The next assay concerns the target T37, 4H607-bH.
T37 chain: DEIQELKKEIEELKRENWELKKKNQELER

In the next assay the target is T38, 4H687-bH.
T38 chain: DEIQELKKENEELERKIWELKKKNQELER

For a further assay, the target named is T39, 4H717-bH.
T39 chain: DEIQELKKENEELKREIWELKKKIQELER

A further assay has as its target T40, 4H72-bH.
T40 chain: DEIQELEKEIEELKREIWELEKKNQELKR

A further assay deals with T41, 4H754-bH.
T41 chain: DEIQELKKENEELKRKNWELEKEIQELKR

The next assay has as its target T42, 4H797-bH.
T42 chain: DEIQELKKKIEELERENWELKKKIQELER

For the next assay, the target named is T43, 4H883-bH.
T43 chain: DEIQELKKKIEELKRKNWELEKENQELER

For the next assay, the target named is T44, 4H908-bH.
T44 chain: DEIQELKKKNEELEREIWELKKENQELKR

A further assay has as its target T45, 4H918-bH.
T45 chain: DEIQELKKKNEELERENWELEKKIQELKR

The target of a further assay is T46, 4H953-bH.
T46 chain: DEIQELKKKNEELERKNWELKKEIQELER

The next assay has as its target T47, 4H967-bH.
T47 chain: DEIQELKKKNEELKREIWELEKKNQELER

The target of a further assay is T48, 4H2667-bN.
T48 chain: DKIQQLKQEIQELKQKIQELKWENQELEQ

Another assay has as its target T49, 4H2697-bN.
T49 chain: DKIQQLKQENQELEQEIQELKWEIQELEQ

A further assay deals with T50, 4H3189-bN.
T50 chain: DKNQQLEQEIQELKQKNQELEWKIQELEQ

The next assay deals with T51, 4H3606-bN.
T51 chain: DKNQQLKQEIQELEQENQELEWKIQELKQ

The target of the next assay is T52, 4H370-bN.
T52 chain: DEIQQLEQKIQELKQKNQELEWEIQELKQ

A further assay concerns the target T53, 4H3843-bN.
T53 chain: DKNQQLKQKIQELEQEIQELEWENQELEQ

Another assay deals with T54, 4H462-bN.
T54 chain: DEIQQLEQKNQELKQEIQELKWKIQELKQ

In the next assay the target is T55, 4H575-bA.
T55 chain: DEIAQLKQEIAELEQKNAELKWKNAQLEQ

In a further assay the target is T56, O16-bA.
T56 chain: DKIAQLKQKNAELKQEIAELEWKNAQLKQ

The target of another assay is T57, O2-bA.
T57 chain: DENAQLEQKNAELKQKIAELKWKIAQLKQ

A further assay deals with T58, O3-bA.
T58 chain: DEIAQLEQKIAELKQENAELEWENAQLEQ

A further assay concerns the target T59, O4-bA.
T59 chain: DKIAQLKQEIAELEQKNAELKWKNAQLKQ

Another assay deals with T60, O5-bA.
T60 chain: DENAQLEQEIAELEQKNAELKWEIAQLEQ

Another assay has as its target T61, O6-bA.
T61 chain: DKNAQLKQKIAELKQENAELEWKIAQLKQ

For the next assay, the target named is T62, O7-bA.
T62 chain: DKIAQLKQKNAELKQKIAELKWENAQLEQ

The target of the next assay is T63, O8-bA.
T63 chain: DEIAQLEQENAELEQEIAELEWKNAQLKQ

In a further assay the target is T64, O9-bA.
T64 chain: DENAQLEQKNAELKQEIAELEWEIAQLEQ

B1: 4H2729-bN (peptide)
chain: DKIQQLKQENQELEQKIQELKWEIQELEQ
B1: the interaction score with 4H2729-bN was -1.82; in the assay with 4H3112-bN it was -0.365; with 4H3185-bN it was -0.905; with 4H331-bN, -1.39; with 4H3354-bN, -0.621; in the assay with 4H338-bN, -1.12. The interaction score with 4H3427-bN is -1.07; in the assay with 4H3782-bN it was -0.911; with 4H3817-bN, -0.912; with 4H3855-bN, -0.181; in the assay with 4H4001-bN, -1.4; in the assay with 4H454-bN it was 1.43. Also, the interaction score with 4H568-bN was -1.47; in the assay with 4H607-bN, -1.28; with 4H687-bN, -0.901; with 4H717-bN it was -1.59; in the assay with 4H72-bN, -1.09; in the assay with 4H754-bN it was -0.565. The interaction score in the assay with 4H797-bN is -1.01; with 4H883-bN it was -2.01; with 4H908-bN, -1.64; in the assay with 4H918-bN, -0.584; with 4H953-bN, -0.965; in the assay with 4H967-bN it was -0.995.

B2: 4H2729-bH (peptide)
chain: DKIQELKKENEELERKIWELKKEIQELER
As to B2, the interaction score was 1.2 in the assay with 4H2729-bH; 0.258 with 4H3112-bH; -3.12 in the assay with 4H3185-bH; -1.61 with 4H331-bH; -0.446 with 4H3354-bH; -0.279 with 4H338-bH. Also, the interaction score with 4H3427-bH was 0.368; in the assay with 4H3782-bH, 0.82; with 4H3855-bH, 0.286; in the assay with 4H4001-bH, -0.467; with 4H454-bH it was 1.36; in the assay with 4H568-bH, -0.0225. Also, the interaction score with 4H607-bH is -1.66; with 4H687-bH, -0.723; in the assay with 4H717-bH, -0.127; with 4H72-bH, -1.03; with 4H754-bH it was 0.0247; with 4H797-bH it was -0.381. The interaction score in the assay with 4H883-bH is -0.885; in the assay with 4H908-bH, -0.811; with 4H918-bH, 0.482; with 4H953-bH, -0.638; in the assay with 4H967-bH, 0.548.

B3: 4H2667-bN (peptide)
chain: DKIQQLKQEIQELKQKIQELKWENQELEQ
Turning to B3, the interaction score with 4H2667-bN was 0.858; in the assay with 4H2697-bN it was -0.288; with 4H2729-bN it was -0.251; with 4H3112-bN, 1.72; with 4H3185-bN, -0.735; with 4H3189-bN it was -0.514. Further, the interaction score in the assay with 4H331-bN is 2.18; with 4H3354-bN it was -1.12; in the assay with 4H338-bN, 0.105; in the assay with 4H3427-bN, 1.56; in the assay with 4H3606-bN, 0.163; with 4H370-bN it was -0.572. In addition, the interaction score with 4H3782-bN is -0.86; with 4H3843-bN it was 1.5; in the assay with 4H3855-bN, -0.551; with 4H4001-bN, 0.942; with 4H454-bN, 0.31; with 4H462-bN, -1.28. Moreover, the interaction score was -0.122 with 4H568-bN; -1.2 with 4H575-bA; -1.69 with 4H607-bN; -1.55 with 4H687-bN; -0.215 in the assay with 4H717-bN; 0.513 with 4H72-bN. Moreover, the interaction score in the assay with 4H754-bN is -0.798; with 4H797-bN, -1.02; in the assay with 4H883-bN it was -0.0532; in the assay with 4H908-bN, -0.467; with 4H918-bN, -1.12; with 4H953-bN it was -0.794. In the assay with 4H967-bN, this molecule showed an interaction score of -0.671.

B4: O16-bA (peptide)
chain: DKIAQLKQKNAELKQEIAELEWKNAQLKQ
Regarding B4, the interaction score with O16-bA is -0.811; in the assay with O2-bA, -0.141; with O3-bA it was -0.599; with O4-bA, -0.54; in the assay with O5-bA, -1.16; in the assay with O6-bA, 1.4. Besides, the interaction score was 1.33 with O7-bA, 1.35 in the assay with O8-bA and -1.22 with O9-bA.
